The values that follow are results of earlier work, collected in patent US10920265B2, “Compounds and methods for detection of enzymes that remove methyl succinyl groups from epsilon-amino lysine moieties” (Enzo Life Sciences, Inc., priority 2011, dated 2021).

What is called kcat is the maximal rate divided by the concentration of active sites.

Conditions in all cases: varied NAD^+, Du et al., 2009; cited from earlier work
Data set [1] addresses T1, SIRT1 (Homo sapiens, UniProt Q96EB6).
T1 construct: purchased ENZO Life Sciences BML-SE239
T1 sequence (Q96EB6 1-747): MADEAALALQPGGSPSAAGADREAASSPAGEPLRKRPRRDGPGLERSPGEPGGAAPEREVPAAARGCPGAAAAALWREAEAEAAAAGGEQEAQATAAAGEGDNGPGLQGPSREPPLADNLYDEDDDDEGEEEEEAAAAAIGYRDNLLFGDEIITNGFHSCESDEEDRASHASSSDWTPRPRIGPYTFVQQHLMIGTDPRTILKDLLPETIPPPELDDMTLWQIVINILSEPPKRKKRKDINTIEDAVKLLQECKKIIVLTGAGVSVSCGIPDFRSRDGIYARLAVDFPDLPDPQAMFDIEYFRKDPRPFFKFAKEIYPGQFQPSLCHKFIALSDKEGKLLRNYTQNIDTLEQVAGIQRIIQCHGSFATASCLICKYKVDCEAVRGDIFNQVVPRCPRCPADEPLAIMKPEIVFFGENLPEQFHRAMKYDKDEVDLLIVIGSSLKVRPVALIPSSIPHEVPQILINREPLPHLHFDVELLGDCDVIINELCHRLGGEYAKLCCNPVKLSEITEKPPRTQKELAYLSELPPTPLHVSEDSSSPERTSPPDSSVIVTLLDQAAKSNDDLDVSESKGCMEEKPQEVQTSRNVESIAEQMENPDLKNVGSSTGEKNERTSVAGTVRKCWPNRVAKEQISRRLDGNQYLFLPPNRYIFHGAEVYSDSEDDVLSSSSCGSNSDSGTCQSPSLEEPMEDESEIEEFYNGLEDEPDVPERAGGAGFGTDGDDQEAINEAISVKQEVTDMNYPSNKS

Data set [2] addresses T2, SIRT2 (Homo sapiens, UniProt Q8IXJ6).
T2 sequence (Q8IXJ6 1-389): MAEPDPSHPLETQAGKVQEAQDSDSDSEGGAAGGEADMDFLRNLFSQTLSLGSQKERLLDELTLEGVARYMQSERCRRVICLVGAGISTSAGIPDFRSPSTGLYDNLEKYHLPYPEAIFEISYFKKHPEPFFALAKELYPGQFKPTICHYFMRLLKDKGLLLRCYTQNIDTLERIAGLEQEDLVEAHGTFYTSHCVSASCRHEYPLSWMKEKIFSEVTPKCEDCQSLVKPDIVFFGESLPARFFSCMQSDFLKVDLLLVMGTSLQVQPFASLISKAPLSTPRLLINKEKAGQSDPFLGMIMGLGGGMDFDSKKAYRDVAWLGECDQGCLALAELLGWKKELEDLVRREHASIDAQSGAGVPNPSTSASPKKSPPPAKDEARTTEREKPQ

In data set [3] the target is T3, SIRT3 (Homo sapiens, UniProt Q9NTG7).
T3 construct: purchased ENZO Life Sciences BML-SE270
T3 sequence (Q9NTG7 1-399): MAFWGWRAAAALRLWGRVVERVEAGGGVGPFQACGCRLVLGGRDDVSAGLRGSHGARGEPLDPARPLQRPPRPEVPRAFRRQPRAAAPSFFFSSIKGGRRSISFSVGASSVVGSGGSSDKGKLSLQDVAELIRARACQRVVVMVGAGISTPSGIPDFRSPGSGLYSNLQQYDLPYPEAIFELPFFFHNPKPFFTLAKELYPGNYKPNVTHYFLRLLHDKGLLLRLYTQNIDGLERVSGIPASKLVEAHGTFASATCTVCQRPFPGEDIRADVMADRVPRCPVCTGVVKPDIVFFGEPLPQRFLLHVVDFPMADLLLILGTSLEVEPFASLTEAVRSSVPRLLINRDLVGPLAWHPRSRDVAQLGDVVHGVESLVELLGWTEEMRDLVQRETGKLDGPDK

The target in data set [4] is T4, SIRT5 (Homo sapiens, UniProt Q9NXA8).
T4 sequence (Q9NXA8 37-310): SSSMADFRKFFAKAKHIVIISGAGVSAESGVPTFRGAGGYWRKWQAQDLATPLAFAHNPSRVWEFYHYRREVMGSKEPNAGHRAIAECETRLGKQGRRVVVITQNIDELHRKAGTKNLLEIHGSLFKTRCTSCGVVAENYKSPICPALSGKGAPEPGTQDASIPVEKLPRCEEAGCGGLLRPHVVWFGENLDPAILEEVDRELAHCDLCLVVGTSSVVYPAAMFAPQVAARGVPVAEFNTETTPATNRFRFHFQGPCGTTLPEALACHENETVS
More on the design: purchased Enzo Life Sciences BML-SE555.

No end group written: not given here.

Consider “Hist. H3 4-15, K9Ac: unlabeled peptide, histone H3 residues 4-15 acetylated on lysine-9 (KQTARK(Ac)STGGKA; UniProt P68431 5-16, looked up, fragment)”, for which the kcat in data set [1] is 0.079 s⁻¹; in data set [2], 0.021 s⁻¹; in data set [3], 0.009 s⁻¹; in data set [4] it was 0.003 s⁻¹.
